{
  "source": "patent US20250235501A1",
  "about": "(UNIVERSITY OF CONNECTICUT, published 2025)",
  "binders": {"B1": {"name": "Endogenous PKCγ of mouse brain and cultured mouse cortical neurons (enzyme)", "chain": "not shown", "notes": "whole, on cells; also called neuron-specific PKC"}},
  "molecular_target": "T1, Endogenous TRPM2 of mouse brain and cultured mouse cortical neurons (mouse, UniProt Q91YD4 1-1506)",
  "T1 construct": "whole, on cells",
  "T1 sequence (Q91YD4 whole entry)": "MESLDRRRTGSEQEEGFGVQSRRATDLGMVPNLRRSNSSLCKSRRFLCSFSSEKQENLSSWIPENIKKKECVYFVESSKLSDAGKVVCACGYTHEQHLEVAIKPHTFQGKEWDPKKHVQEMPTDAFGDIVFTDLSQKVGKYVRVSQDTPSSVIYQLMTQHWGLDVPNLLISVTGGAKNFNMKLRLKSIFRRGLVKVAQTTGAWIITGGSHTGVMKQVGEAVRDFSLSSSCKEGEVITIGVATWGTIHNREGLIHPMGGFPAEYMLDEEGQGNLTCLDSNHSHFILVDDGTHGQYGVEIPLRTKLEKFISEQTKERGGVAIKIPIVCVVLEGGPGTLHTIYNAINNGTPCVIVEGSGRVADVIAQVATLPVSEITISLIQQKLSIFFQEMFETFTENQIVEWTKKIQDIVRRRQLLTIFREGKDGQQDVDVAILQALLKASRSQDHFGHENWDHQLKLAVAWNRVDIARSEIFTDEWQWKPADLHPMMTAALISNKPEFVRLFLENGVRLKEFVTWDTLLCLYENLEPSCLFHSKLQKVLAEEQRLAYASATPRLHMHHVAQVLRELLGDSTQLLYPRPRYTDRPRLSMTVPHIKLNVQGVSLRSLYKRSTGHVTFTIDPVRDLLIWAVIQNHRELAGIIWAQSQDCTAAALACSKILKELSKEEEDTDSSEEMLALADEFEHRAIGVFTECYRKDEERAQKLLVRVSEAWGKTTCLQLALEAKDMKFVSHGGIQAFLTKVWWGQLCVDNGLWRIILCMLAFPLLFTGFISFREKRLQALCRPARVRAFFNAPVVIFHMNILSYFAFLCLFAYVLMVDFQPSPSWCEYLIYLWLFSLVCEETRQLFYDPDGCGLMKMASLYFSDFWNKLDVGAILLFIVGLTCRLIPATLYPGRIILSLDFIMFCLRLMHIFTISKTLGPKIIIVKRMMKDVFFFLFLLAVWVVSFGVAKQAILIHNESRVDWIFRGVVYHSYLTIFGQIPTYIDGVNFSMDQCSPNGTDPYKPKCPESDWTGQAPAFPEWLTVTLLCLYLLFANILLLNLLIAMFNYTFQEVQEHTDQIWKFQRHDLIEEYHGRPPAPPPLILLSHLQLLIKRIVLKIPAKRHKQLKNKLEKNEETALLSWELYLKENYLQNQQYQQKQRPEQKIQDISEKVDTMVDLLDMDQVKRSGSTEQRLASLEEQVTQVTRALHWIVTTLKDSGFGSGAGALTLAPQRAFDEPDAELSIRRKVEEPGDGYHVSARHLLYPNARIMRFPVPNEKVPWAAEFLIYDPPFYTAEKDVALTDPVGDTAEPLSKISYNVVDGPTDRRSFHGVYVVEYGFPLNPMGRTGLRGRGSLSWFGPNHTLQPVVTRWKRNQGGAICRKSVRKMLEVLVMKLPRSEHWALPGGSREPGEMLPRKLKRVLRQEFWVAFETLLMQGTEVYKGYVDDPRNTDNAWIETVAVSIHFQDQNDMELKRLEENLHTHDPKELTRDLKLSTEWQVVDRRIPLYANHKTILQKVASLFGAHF",
  "assay": "co-IP with anti-TRPM2, western blot, PKCγ/TRPM2 ratio, brain tissue",
  "protocol": "Thus, whether PKC interacts with TRPM2 was investigated.\nNP-40 lysis buffer ([…], 150 mM NaCl, 1 mM EDTA, 50 mM Tris, pH=8.0) containing proteinase inhibitors (Sigma-Aldrich, 539131-10VL) and phosphatase inhibitors (Thermal Fisher Scientific, 78428) was used to lyse both cultured cells and frozen brain tissue. For transfected cells, proteins were extracted 36 hours after transfection. Cell and tissue lysate were lysed by ultrasound using an ultrasonic cleaner (Thermal Fisher Scientific) filled with ice-cold water for 30 min. After incubated on ice for 1 h, lysate was centrifuged at 13000 g for 30 min and supernatant was collected. Protein concentration was measured using Pierce™ Rapid Gold BCA Protein Assay Kit (Thermal Fisher Scientific, A53225). 300 μg of protein was taken and diluted using NP-40 lysis buffer to make a total volume of 500 μl. Unused protein was allocated and frozen at −80° C. for future use. Appropriate amount of antibody was added based on instruction. After protein-antibody mixture was incubated on ice for 2 h, 25 μL of pre-washed Protein A/G PLUS-Agarose (Santa Cruz Biotechnology, sc-2003) was added, and the whole mixture was incubated at 4° C. for overnight. Then the mixture was centrifuged at 2500 g for Imin to get agarose beads. […] Then samples were ready for western blotting analysis.",
  "data": [
    {"binder": "B1", "values": [
      {"measurement": "amount of PKCγ pulled down by anti-TRPM2, MCAO against sham mice", "value": "~1.5", "unit": "fold"}
    ]}
  ]
}
